Here are results for 19 variants from the RNAGym collection of RNA variant scans (doi:10.1073/pnas.2313332121).

B1: TPR 5TU (parent)
chain: GGAUCUUCUCGAUCUAACAAAAAAGACAAAUCUGCCACAAAGCUUGAGAGCAUCUUCGGAUGCAGAGGCGGCAGCCUUCGGUGGCGCGAUAGCGCCAACGUUCUCAACUAUGACACGCAAAACGCGUGCUCCGUUGAAUGGAGUUUAUCAUG

Fewer inactive variants are shown than the library holds.

In this series the parent is B1. In words: polymerase ribozyme fitness, log enrichment relative to wild type (log ratio); higher = more active; in vitro selection for triplet polymerase activity. Summed up:
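In triplicate, a single round of in vitro selection was run on each mutant library, PCR-built and transcribed, covering one subunit of a heterodimeric triplet polymerase ribozyme. Frozen incubation at −7 °C followed annealing with a biotinylated primer, partner subunit and triplets, and extended constructs were then gel-excised, streptavidin-captured and taken through RT-PCR. Fitness is the logarithm of genotype enrichment over wild-type enrichment, from inverse-variance-weighted replicate averages of Illumina-sequenced inputs and outputs. […] only genotypes with ≥10 input reads and ≥1 read per output were kept.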
As for GGAUCUUAUCGAUCUAACAAAAAAGACAAAUCUGCCACAAUGCUUGAGAGCAUCUUCGGAUGCAGAGGCGGCAGCUUUCGGUGGCGCGAUAGCGCCAGCGUUCUCAACUAUGACAGGCAAAACGCGUGCUCCGUUGAAUGGACUUUAUCAUG [C8A A41U C76U A98G C116G G143C], the “polymerase ribozyme fitness (log ratio)” value was no more than -4.2.

Turning to GGAUCUUAUCGAUCUAACAAAAAAGACAAAUCUGCCACAAAGCUUGAGAGCAUCUUCGGAUGCGGAGGCGGCAGCCUUCGGAGGCGCGAUUGCGCCCACGUUCUCAACUAUGACACGCAAAGCGCGUGCUCCGUUGAAUGGCGUUUAUCAUG [C8A A64G U82A A91U A97C A122G A142C], the “polymerase ribozyme fitness (log ratio)” value is no more than -4.2.

For GGAUCUUAUCGAUCUAACAAAAAAGACAAAUCUGCCACAAAGCUUGAGAGCAUUUUCGGAUGCAGAGGCGGCAGCCUUCGGUGGCGCGAUAGCGCCAACGUUCUCAACUAUGACACGCAAAACGCGUGCUCCGUUGAAUGGAGUUUAUCAUG [C8A C54U], the “polymerase ribozyme fitness (log ratio)” value was -3.64.

Turning to GGAUCUUAUCGAUCUAACAAAAAAGACAAAUCUGCCACAAAGCUUGAGAGAAUCUUAGAAAGCAGACGCGGCAGCCUUCGGUGGCGCGAUAGCGUCAACGUUCUCAACUAUGACACGCAAAACGUGUGCUCCGCUGAAAGGAGUUUAUCAUG [C8A C51A C57A G59A U61A G67C C95U C125U U134C U139A], the “polymerase ribozyme fitness (log ratio)” value was no more than -4.2.

Turning to GGAUCUUAUCGAUCUAACAAAAAAGACAAAUCUGCCACAAAGCUUGAGAGCAUCUUAGGAUGCAGAGGCGGCAACCUUCGGUGGCGCGAUAGCGCCAACGUUCUCAACUAUGACACGUAAAACGCGUGCUCCGUUGAAUGGAGUUUAUCAUG [C8A C57A G74A C118U], the “polymerase ribozyme fitness (log ratio)” value was no more than -4.2.

GGAUCUUAUCGAUCUAACAAAAAAGACAAAUCUGCCACAAAGCUUGAGAGCAUCUUCGGAUGCAGAGGCGGCAGCCUUCGGUGGCGAGAUAGCGCCAAUGUUCUCAACUAUGACACGCAAAACGCGUGCUCCGUUGAAUGGAGUUUAUCAUG [C8A C87A C99U]: the “polymerase ribozyme fitness (log ratio)” value is no more than -4.2.

For GGAUCUUAUCGAUCUAACAAAAAAGACAAAUCUGCCACAUAGCUUGAGAGCAUCUUCGGAUGCAGAGGCGUCAGCCUUCGGUGGGGCGAUAGCGCCAACGUUCUCAACUAUGACACGCAAAACGCGUGCUCCGUUGAAUGGAGUUUAUCAUG [C8A A40U G71U C85G], the “polymerase ribozyme fitness (log ratio)” value is no more than -4.2.

Turning to GGAUCUUAUCGAUGUAACAAGAAAAACAAAUCUGCCACAAAGCUCGAGAGCAUCUUCGGAUGCAGAGGCGGCAGACUUCGUUGGGGGGAUAGCGCCAACGUUCUCAACUAUGACACGCAAAACGCGUGCUCCGUUGAAUGGAGUUUAUCAUG [C8A C14G A21G G25A U45C C75A G81U C85G C87G], the “polymerase ribozyme fitness (log ratio)” value is no more than -4.2.

Turning to GGAUCUUAUCGAUCUAACAAAAAAGACAAAUCUGCCAUAAAGCUUGAGAGCAUCUUUGGAUGCAGAGGCGGCAGCCUUGGGUGGCGCGAUAGCGCGAACGUUCUCAACUAUGACACGCAAAACGCGUGCUCCGUUGAAUGGAGUUUAUCAUG [C8A C38U C57U C79G C96G], the “polymerase ribozyme fitness (log ratio)” value was no more than -4.2.

Consider GGAUCUUAUCGAUCUAACAAAAAAGACAAAUCUGCCCCAAAGCUUGAGAGCAUCUUCGCAUGCAGAGGCGGCAGACUUCGGUGGCGCGAUAACGCCAACGUUCUCAACUAUGACACGCAAAACGCGUGCUCCGUUGAAUGGAGUUUAUCAUG [C8A A37C G59C C75A G92A], for which the “polymerase ribozyme fitness (log ratio)” value is no more than -4.2.

As for GGAUCUUAUCGAUCUAACAAAAAAGACAAAUCUGCCACAAAGCUUGAGAGCAUCUUCGGAUGCAGAGGCGGCAGCAUUCGGUGGCGCUAUAGCUCCAACGUUCUCAACUAUGACACGCAAAACGCGUGCUCGGUUGAACGGAGUUUAUCAUG [C8A C76A G88U G94U C132G U139C], the “polymerase ribozyme fitness (log ratio)” value is no more than -4.2.

Regarding GGAUCUUAUCGAUCUAACAAAAAAGACAAAUCUGCCACAAAGCUUGAGGGCAUCUUCGGUUGCAGAGGCGGCAGUCUCCGGUGGGGCGAUAGCGCCAACGUUCUCAACUAUGACAGGCAAAACGCGUGCUCCGUUGAAUAGAGUUUAUCAUG [C8A A49G A60U C75U U78C C85G C116G G140A], the “polymerase ribozyme fitness (log ratio)” value was no more than -4.2.

In the case of GGAUCUUAUCGAUCUAACAAAAAAGACAAAUCUGCCACAAAGCUUGAGAGCAUCUUCGGAUGCAGAGGCGGCAGCGUUCGGUGGCUCGAUAGCGCCAACGUUCUCAACGAUGACACGCAAAACGCGUGCUCCGUUGAAUGUAGUUUAUCAUG [C8A C76G G86U U109G G141U], the “polymerase ribozyme fitness (log ratio)” value is no more than -4.2.

On to GGAUCUUAUCGAUCUAACAAAAAAGACAAAUCUGCCACAAAGCUUGAGAGCAUCUUGGGAUGCAGAGGCGGCAGCCUUCGGAGGCGCGAUAGCGCCAGCGUUCUCAACUAUGACACGCAAAACGCGUGCUCCGUUGAAUGGAGUUUAUCAUG [C8A C57G U82A A98G], for which the “polymerase ribozyme fitness (log ratio)” value was no more than -4.2.

GGAUCUUAUCGAUCUAACAAAAAAGACAAAUCUGCAACAAAGCUUGAGAGCAUCUUCGGAUGCAGAGCCGGCAGCCUUCGGUGGCGCGAUAGCGCUAAAGUUCUCAACUAUGACACGCAAAACGCGUCCUCCGUUGAAUGGAGUUUAUCAUG [C8A C36A G68C C96U C99A G128C]: the “polymerase ribozyme fitness (log ratio)” value is no more than -4.2.

GGAUCUUAUCGAUCUAACAAAAAAGACAAAUCUGCCACAAAGCUUGAGAGCAUCUUCGGAUGCAGAGGCGGCAGCCUUUGGUGGCGCGAUAGCGCCAACGUUCUCAACUAUGACACGCACAACGGGUGCUCCGUUGAAUGGUGUUCAUCAUG [C8A C79U A120C C125G A142U U146C]: the “polymerase ribozyme fitness (log ratio)” value is no more than -4.2.

For the variant GGAUCUUAUCGAUCUAACAAAAAAGACAAAUCUGCCACAAAGCUUGAGAGCAUCUUCGGAUGCAGAGGCGGCAGCCUUCGGUGGUGCGAUAGCGCCAACGUUCUCAACUAUGACAUGCAAAACGCGUGCUCCGUUGAAUGAAGUUUAUCAUG [C8A C85U C116U G141A], the “polymerase ribozyme fitness (log ratio)” value was no more than -4.2.

Regarding GGAUCUUAUCGAUCUAACAAAAAAGACAAAUCUGCUACAAAGCUUGAGAGCAUCUUCGGAUUCAGAGGCGGCAGCCUUCGGUGGCGCGAUAGCGGCAACGUUCUCAACUAUGACUCGCAAAACGCGUGCUCCGUUGAAUGGAGUUUAUCAUG [C8A C36U G62U C95G A115U], the “polymerase ribozyme fitness (log ratio)” value is no more than -4.2.

Turning to GGAUCUUAUCGAUCUAACAAAAAAGACAAAUCUGCCACAAAGCUUGAGAGCAUCUUCGGAUGCAGAGGCGGCAGCCUUCGGUGGAGAGAUAGCGCCAACGUUCUCAACUAUGACACGCAAAACACGUGCUCCGUUGAAUGGAGUUUAUCAUG [C8A C85A C87A G124A], the “polymerase ribozyme fitness (log ratio)” value is no more than -4.2.
